From US20140356358A1 (Amgen, published 2014) come the findings set out here.

In experiment [1] the target is T1, human neonatal Fc receptor (hFcRn) (human, UniProt P55899 24-290; P61769 21-119).
T1 construct: Biotinylated in the ELISA, Octet and yeast assays; also called human FcRn; huFcRn
Briefly: phage ELISA pH 6. For orientation: ELISA stands for enzyme-linked immunosorbent assay.

The target of experiment [2] is T1, human neonatal Fc receptor (hFcRn). In words: phage ELISA pH 7.4.
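Note: higher score means stronger binding and above about 3 to 5 exceeds background.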

T1 sequence (P55899 24-290 limits assumed, chain 1 of 2): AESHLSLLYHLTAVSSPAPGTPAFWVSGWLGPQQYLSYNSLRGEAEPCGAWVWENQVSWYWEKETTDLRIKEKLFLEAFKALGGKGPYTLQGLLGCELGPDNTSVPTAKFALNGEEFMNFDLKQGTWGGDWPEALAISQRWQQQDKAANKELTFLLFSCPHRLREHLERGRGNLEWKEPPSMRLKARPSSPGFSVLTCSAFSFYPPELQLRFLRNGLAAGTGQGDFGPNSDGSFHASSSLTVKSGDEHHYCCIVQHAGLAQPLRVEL
T1 sequence (P61769 21-119 limits assumed, chain 2 of 2): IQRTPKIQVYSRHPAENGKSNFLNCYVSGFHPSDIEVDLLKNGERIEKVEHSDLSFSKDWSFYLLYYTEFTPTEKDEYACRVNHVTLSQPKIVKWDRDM

B1: L6A isolate with insertion SEQ ID NO: 466 (other)
chain: EPKSCDKTHTCPPCPAPELLGGPSVFLFPPKPKDTLMISRTPEVTCVVVDVSHEDPEVKFNWYVDGVEVHNAKTKPREEQYNSTYRVVSVLTVLHQDWLNGKEYKCKVSNKALPAPIEKTISKAKGQPREPQVYTLPPSRDELGGCDRFQNVNVCGGTKNQVSLTCLVKGFYPSDIAVEWESNGQPENNYKTTPPVLDSDGSFFLYSKLTVDKSRWQQGNVFSCSVMHEALHNHYTQKSLSLSPGK
With B1, the ELISA score in experiment [1] was found to be 44; in experiment [2], 0.2.

B2: L6B isolate with insertion SEQ ID NO: 457 (other)
chain: EPKSCDKTHTCPPCPAPELLGGPSVFLFPPKPKDTLMISRTPEVTCVVVDVSHEDPEVKFNWYVDGVEVHNAKTKPREEQYNSTYRVVSVLTVLHQDWLNGKEYKCKVSNKALPAPIEKTISKAKGQPREPQVYTLPPSRDELGGCNQSSSREACGGTKNQVSLTCLVKGFYPSDIAVEWESNGQPENNYKTTPPVLDSDGSFFLYSKLTVDKSRWQQGNVFSCSVMHEALHNHYTQKSLSLSPGK
As to B2, the ELISA score in experiment [1] was 49.2; in experiment [2], 0.4.

B3: L6B isolate with insertion SEQ ID NO: 410 (other)
chain: EPKSCDKTHTCPPCPAPELLGGPSVFLFPPKPKDTLMISRTPEVTCVVVDVSHEDPEVKFNWYVDGVEVHNAKTKPREEQYNSTYRVVSVLTVLHQDWLNGKEYKCKVSNKALPAPIEKTISKAKGQPREPQVYTLPPSRDELGGCLKGMHGSACGGTKNQVSLTCLVKGFYPSDIAVEWESNGQPENNYKTTPPVLDSDGSFFLYSKLTVDKSRWQQGNVFSCSVMHEALHNHYTQKSLSLSPGK
In the case of B3, the ELISA score in experiment [1] amounted to 68.9; in experiment [2], 0.8.

B4: L6B isolate with insertion SEQ ID NO: 440 (other)
chain: EPKSCDKTHTCPPCPAPELLGGPSVFLFPPKPKDTLMISRTPEVTCVVVDVSHEDPEVKFNWYVDGVEVHNAKTKPREEQYNSTYRVVSVLTVLHQDWLNGKEYKCKVSNKALPAPIEKTISKAKGQPREPQVYTLPPSRDELGGCNATLSGYLCGGTKNQVSLTCLVKGFYPSDIAVEWESNGQPENNYKTTPPVLDSDGSFFLYSKLTVDKSRWQQGNVFSCSVMHEALHNHYTQKSLSLSPGK
As to B4, the ELISA score in experiment [1] stood at 54.9; in experiment [2] it was 0.6.

B5: L6B isolate with insertion SEQ ID NO: 471 (other)
chain: EPKSCDKTHTCPPCPAPELLGGPSVFLFPPKPKDTLMISRTPEVTCVVVDVSHEDPEVKFNWYVDGVEVHNAKTKPREEQYNSTYRVVSVLTVLHQDWLNGKEYKCKVSNKALPAPIEKTISKAKGQPREPQVYTLPPSRDELGGCLRNFMKQSCGGTKNQVSLTCLVKGFYPSDIAVEWESNGQPENNYKTTPPVLDSDGSFFLYSKLTVDKSRWQQGNVFSCSVMHEALHNHYTQKSLSLSPGK
Turning to B5, the ELISA score in experiment [1] stood at 42.3; in experiment [2], 0.2.

B6: L6B isolate with insertion SEQ ID NO: 469 (other)
chain: EPKSCDKTHTCPPCPAPELLGGPSVFLFPPKPKDTLMISRTPEVTCVVVDVSHEDPEVKFNWYVDGVEVHNAKTKPREEQYNSTYRVVSVLTVLHQDWLNGKEYKCKVSNKALPAPIEKTISKAKGQPREPQVYTLPPSRDELGGCEMMKNKSGCGGTKNQVSLTCLVKGFYPSDIAVEWESNGQPENNYKTTPPVLDSDGSFFLYSKLTVDKSRWQQGNVFSCSVMHEALHNHYTQKSLSLSPGK
As to B6, the ELISA score in experiment [1] worked out at 43.2; in experiment [2] it was 0.3.

B7: L6A isolate with insertion SEQ ID NO: 474 (other)
chain: EPKSCDKTHTCPPCPAPELLGGPSVFLFPPKPKDTLMISRTPEVTCVVVDVSHEDPEVKFNWYVDGVEVHNAKTKPREEQYNSTYRVVSVLTVLHQDWLNGKEYKCKVSNKALPAPIEKTISKAKGQPREPQVYTLPPSRDELGGCAKDQHTGSCGGTKNQVSLTCLVKGFYPSDIAVEWESNGQPENNYKTTPPVLDSDGSFFLYSKLTVDKSRWQQGNVFSCSVMHEALHNHYTQKSLSLSPGK
As to B7, the ELISA score is 41.2 in experiment [1] and 0.2 in experiment [2].

B8: L6B isolate with insertion SEQ ID NO: 460 (other)
chain: EPKSCDKTHTCPPCPAPELLGGPSVFLFPPKPKDTLMISRTPEVTCVVVDVSHEDPEVKFNWYVDGVEVHNAKTKPREEQYNSTYRVVSVLTVLHQDWLNGKEYKCKVSNKALPAPIEKTISKAKGQPREPQVYTLPPSRDELGGCGEYNYVGGCGGTKNQVSLTCLVKGFYPSDIAVEWESNGQPENNYKTTPPVLDSDGSFFLYSKLTVDKSRWQQGNVFSCSVMHEALHNHYTQKSLSLSPGK
Take B8: the ELISA score came to 47.2 in experiment [1] and 0.4 in experiment [2].

B9: L6B isolate with insertion SEQ ID NO: 427 (other)
chain: EPKSCDKTHTCPPCPAPELLGGPSVFLFPPKPKDTLMISRTPEVTCVVVDVSHEDPEVKFNWYVDGVEVHNAKTKPREEQYNSTYRVVSVLTVLHQDWLNGKEYKCKVSNKALPAPIEKTISKAKGQPREPQVYTLPPSRDELGGCVQHKMGVVCGGTKNQVSLTCLVKGFYPSDIAVEWESNGQPENNYKTTPPVLDSDGSFFLYSKLTVDKSRWQQGNVFSCSVMHEALHNHYTQKSLSLSPGK
Turning to B9, the ELISA score amounted to 58.9 in experiment [1] and 0.8 in experiment [2].

B10: L6B isolate with insertion SEQ ID NO: 468 (other)
chain: EPKSCDKTHTCPPCPAPELLGGPSVFLFPPKPKDTLMISRTPEVTCVVVDVSHEDPEVKFNWYVDGVEVHNAKTKPREEQYNSTYRVVSVLTVLHQDWLNGKEYKCKVSNKALPAPIEKTISKAKGQPREPQVYTLPPSRDELGGCTLGSAPTLCGGTKNQVSLTCLVKGFYPSDIAVEWESNGQPENNYKTTPPVLDSDGSFFLYSKLTVDKSRWQQGNVFSCSVMHEALHNHYTQKSLSLSPGK
As for B10, the ELISA score was determined as 43.6 in experiment [1] and 0.2 in experiment [2].

B11: L6B isolate with insertion SEQ ID NO: 472 (other)
chain: EPKSCDKTHTCPPCPAPELLGGPSVFLFPPKPKDTLMISRTPEVTCVVVDVSHEDPEVKFNWYVDGVEVHNAKTKPREEQYNSTYRVVSVLTVLHQDWLNGKEYKCKVSNKALPAPIEKTISKAKGQPREPQVYTLPPSRDELGGCPNDTVRDACGGTKNQVSLTCLVKGFYPSDIAVEWESNGQPENNYKTTPPVLDSDGSFFLYSKLTVDKSRWQQGNVFSCSVMHEALHNHYTQKSLSLSPGK
For B11, the ELISA score in experiment [1] amounted to 42.2; in experiment [2], 0.4.

B12: L6A isolate with insertion SEQ ID NO: 467 (other)
chain: EPKSCDKTHTCPPCPAPELLGGPSVFLFPPKPKDTLMISRTPEVTCVVVDVSHEDPEVKFNWYVDGVEVHNAKTKPREEQYNSTYRVVSVLTVLHQDWLNGKEYKCKVSNKALPAPIEKTISKAKGQPREPQVYTLPPSRDELGGCERHFPALFCGGTKNQVSLTCLVKGFYPSDIAVEWESNGQPENNYKTTPPVLDSDGSFFLYSKLTVDKSRWQQGNVFSCSVMHEALHNHYTQKSLSLSPGK
B12: the values for the ELISA score in experiment [1] and in experiment [2] were 43.8 and 0.6, respectively.

B13: L6B isolate with insertion SEQ ID NO: 454 (other)
chain: EPKSCDKTHTCPPCPAPELLGGPSVFLFPPKPKDTLMISRTPEVTCVVVDVSHEDPEVKFNWYVDGVEVHNAKTKPREEQYNSTYRVVSVLTVLHQDWLNGKEYKCKVSNKALPAPIEKTISKAKGQPREPQVYTLPPSRDELGGCYGKAGMRDCGGTKNQVSLTCLVKGFYPSDIAVEWESNGQPENNYKTTPPVLDSDGSFFLYSKLTVDKSRWQQGNVFSCSVMHEALHNHYTQKSLSLSPGK
As to B13, the values for the ELISA score in experiment [1] and in experiment [2] were 50.1 and 0.4, respectively.
